{"source": "patent US20110059013A1", "about": "“ANTI-ROBO4 ANTIBODIES AND USES THEREFOR” (Genentech, Inc., priority 2007, published 2011)", "molecules": {"B1": {"name": "Robo4-His: soluble Robo4 extracellular domain fused to a C-terminal Histidine tag (protein)", "chain": "QDSPPQILVHPQDQLFQGPGPARMSCQASGQPPPTIRWLLNGQPLSMVPPDPHHLLPDGTLLLLQPPARGHAHDGQALSTDLGVYTCEASNRLGTAVSRGARLSVAVLREDFQIQPRDMVAVVGEQFTLECGPPWGHPEPTVSWWKDGKPLALQPGRHTVSGGSLLMARAEKSDEGTYMCVATNSAGHRESRAARVSIQEPQDYRAHHHHHHHH"}}, "key": {"HUVEC": {"test_system": "HUVEC", "assay": "HUVEC cellular migration assay", "type": "cell-based, human", "protocol": "Robo4-Fc and Robo4-His were contacted with vascular ECs using a HUVEC migration assay and in the presence or absence of VEGF.\nEndothelial cell migration was not blocked by anti-Robo4 antibody in an in vitro assay using human umbilical vascular endothelial cells (HUVEC) cellular migration assay. HUVECs endogenously express human Robo4. The assay was performed as follows. HUVECs were pre-incubated for 2 hours with VEGF."}, "UNC5B": {"molecular_target": "T1, UNC5B (Homo sapiens, UniProt Q8IZJ1)", "T1 construct": "extracellular domain of UNC5B fused to an Fc region; Fc region", "T1 sequence (Q8IZJ1 27-377 limits assumed, species assumed)": "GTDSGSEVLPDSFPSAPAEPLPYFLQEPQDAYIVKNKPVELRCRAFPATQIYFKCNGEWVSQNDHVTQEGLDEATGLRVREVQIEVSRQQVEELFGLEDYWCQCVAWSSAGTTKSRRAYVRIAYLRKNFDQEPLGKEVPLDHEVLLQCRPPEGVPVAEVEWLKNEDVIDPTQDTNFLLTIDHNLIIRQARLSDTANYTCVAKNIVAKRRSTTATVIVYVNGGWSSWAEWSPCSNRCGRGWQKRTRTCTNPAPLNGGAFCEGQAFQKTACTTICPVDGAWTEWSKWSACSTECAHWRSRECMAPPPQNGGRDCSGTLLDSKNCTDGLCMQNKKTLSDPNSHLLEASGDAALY", "assay": "SPR binding to immobilized UNC5B-Fc", "protocol": "It has been shown that netrin binding to members of the uncoordinated-5 (UNC5) family of receptors (UNC5A, B, C, and D) results in neural axon […] (Klagsbrun, M. and Eichmann, A., Cytokine & Growth Factor Reviews 16(4-5):535-548 (2005)). Netrin-UNC5B interaction has been implicated in angiogenesis (Klagsbrun, M. and Eichmann, A., supra (2005) and Lu, X. et al., Nature 432:179-186 (2004)). The interaction of Robo4 with UNC5B in vitro was determined by SPR binding measurements in which UNC5B-Fc fusion protein (extracellular domain of UNC5B fused to an Fc region) was immobilized on a chip and soluble Robo4-Fc or Robo4-His was allowed to interact with it at different concentrations."}}}
{"molecule": "B1", "values": [{"measurement": "blocking of endothelial cell migration", "setting": "HUVEC; HUVECs pre-incubated with VEGF, 16 hours", "result": "Neither anti-Robo4 nor the soluble Robo4 extracellular domain fusion proteins (Robo4-Fc and Robo4-His) blocked EC migration"}, {"measurement": "induction of EC migration", "setting": "HUVEC; alone, absence of VEGF", "result": "did not induce EC migration"}, {"measurement": "interaction with UNC5B", "setting": "UNC5B", "result": "interacts in vitro with UNC5B"}]}
